The source of these data is article PMC7883056 (The EMBO Journal, 2021).

The test addresses T1, N-GST-tagged Ythdf (full length) (Drosophila melanogaster, UniProt Q9VBZ5 1-700).
T1 sequence: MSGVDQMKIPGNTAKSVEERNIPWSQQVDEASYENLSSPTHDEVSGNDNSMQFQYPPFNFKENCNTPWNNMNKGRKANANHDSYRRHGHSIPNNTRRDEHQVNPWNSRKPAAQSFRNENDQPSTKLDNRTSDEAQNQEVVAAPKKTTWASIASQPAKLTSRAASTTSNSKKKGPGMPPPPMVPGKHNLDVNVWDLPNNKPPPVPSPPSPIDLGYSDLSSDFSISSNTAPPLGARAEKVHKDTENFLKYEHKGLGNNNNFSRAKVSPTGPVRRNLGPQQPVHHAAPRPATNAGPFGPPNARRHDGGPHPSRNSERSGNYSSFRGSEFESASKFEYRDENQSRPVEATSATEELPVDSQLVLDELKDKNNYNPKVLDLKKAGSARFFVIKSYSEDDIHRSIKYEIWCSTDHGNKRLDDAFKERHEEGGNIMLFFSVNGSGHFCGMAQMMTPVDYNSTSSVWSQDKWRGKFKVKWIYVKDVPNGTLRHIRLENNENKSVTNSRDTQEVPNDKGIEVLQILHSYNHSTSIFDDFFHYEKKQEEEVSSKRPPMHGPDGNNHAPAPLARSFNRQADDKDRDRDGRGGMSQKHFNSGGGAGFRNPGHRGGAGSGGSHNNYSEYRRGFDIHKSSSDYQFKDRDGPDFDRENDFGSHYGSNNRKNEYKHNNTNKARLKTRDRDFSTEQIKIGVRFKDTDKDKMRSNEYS
As to the kind of experiment: pull-down.

B1: N-His6-tagged NT-Fmr1 (220-684) (domain or fragment)
chain: not shown
Regarding B1, the binding result is “binds”.
